B1: Plexin-A2 (Mus musculus), P70207 (parent)
chain: MEQRRFYLRAMQADNLSVVLLSVAWLLLARGTTGMPQYSTFHSENRDWTFNHLTVHRRTGAVYVGAINRVYKLTGNLTIQVAHKTGPEEDNKACYPPLIVQPCSEVLTLTNNVNKLLIIDYSENRLLACGSLYQGVCKLLRLDDLFILVEPSHKKEHYLSSVNKTGTMYGVIVRSEGEDGKLFIGTAVDGKQDYFPTLSSRKLPRDPESSAMLDYELHSDFVSSLIKIPSDTLALVSHFDIFYIYGFASGGFVYFLTVQPETPDGMAINSAGDLFYTSRIVRLCKDDPKFHSYVSLPFGCTRAGVEYRLLQAAYLAKPGEALAQAFNISSDEDVLFAIFSKGQKQYHHPPDDSALCAFPIRAINLQIKERLQSCYHGEGNLELNWLLGKDVQCTKAPVPIDDNFCGLDINQPLGGSTPVEGLTLYTTSRDRLTSVASYVYNGYSVVFVGTKSGKLKKIRADGPPHGGVQYEMVSVFKDGSPILRDMAFSINQLYLYVMSERQVTRVPVESCEQYTTCGECLSSGDPHCGWCALHNMCSRRDKCQRAWEANRFAASISQCMSLEVHPNSISVSDHSRLLSLVVNDAPNLSEGIACAFGNLTEVEGQVSGSQVICISPGPKDVPVIPLDQDWFGLELQLRSKETGKIFVSTEFKFYNCSAHQLCLSCVNSAFRCHWCKYRNLCTHDPTTCSFQEGRINVSEDCPQLVPTEEILIPVGEVKPITLKARNLPQPQSGQRGYECVLSIQGAVHRVPALRFNSSSVQCQNSSYQYDGMDISNLAVDFAVVWNGNFIIDNPQDLKVHLYKCAAQRESCGLCLKADHKFECGWCSGERRCTLHQHCPSTSSPWLDWSSHNVKCSNPQITEILTVSGPPEGGTRVTIHGVNLGLDFSEIAHHVQVAGVPCTPIPGEYIIAEQIVCEMGHAVIGTTSGPVRLCIGECKPEFMTKSHQQYTFVNPSVLSLSPIRGPESGGTMVTITGHYLGAGSSVAVYLGNQTCEFYGRSMNEIVCVSPPSSNGLGPVPVSVSVDRARVDSSLQFEYIDDPRVQRIEPEWSITSGHTPLTITGFNLDVIQEPRVRVKFNGKESVNVCTVVNTTTLTCLAPSLTSDYRPGLDTVERPDEFGFLFNNVQSLLIYNDTKFIYYPNPTFELLSPTGILDQKPGSPIILKGKNLCPPASGGAKLNYTVMIGETPCTVTVSETQLLCEPPNLTGQHKVMVHVGGMVFSPGSVSVISDSLLTLPAIISIAAGGSLLLIIVIIVLIAYKRKSRENDLTLKRLQMQMDNLESRVALECKEAFAELQTDINELTSDLDRSGIPYLDYRTYAMRVLFPGIEDHPVLRELEVQGNGQQHVEKALKLFAQLINNKVFLLTFIRTLELQRSFSMRDRGNVASLIMTGLQGRLEYATDVLKQLLSDLIDKNLENKNHPKLLLRRTESVAEKMLTNWFAFLLHKFLKECAGEPLFMLYCAIKQQMEKGPIDAITGEARYSLSEDKLIRQQIEYKTLILNCVNPDNENSPEIPVKVLNCDTITQVKEKILDAVYKNVPYSQRPRAVDMDLEWRQGRIARVVLQDEDITTKIEGDWKRLNTLMHYQVSDRSVVALVPKQTSSYNIPASASISRTSISRYDSSFRYTGSPDSLRSRVPMITPDLESGVKVWHLVKNHDHGDQKEGDRGSKMVSEIYLTRLLATKGTLQKFVDDLFETLFSTVHRGSALPLAIKYMFDFLDEQADRHSIHDTDVRHTWKSNCLPLRFWVNVIKNPQFVFDIHKGSITDACLSVVAQTFMDSCSTSEHRLGKDSPSNKLLYAKDIPSYKNWVERYYADIAKLPAISDQDMNAYLAEQSRLHATEFNMLSALNEIYSYVSKYSEELIGALEQDEQARRQRLAYKVEHLINAMSIES
partner: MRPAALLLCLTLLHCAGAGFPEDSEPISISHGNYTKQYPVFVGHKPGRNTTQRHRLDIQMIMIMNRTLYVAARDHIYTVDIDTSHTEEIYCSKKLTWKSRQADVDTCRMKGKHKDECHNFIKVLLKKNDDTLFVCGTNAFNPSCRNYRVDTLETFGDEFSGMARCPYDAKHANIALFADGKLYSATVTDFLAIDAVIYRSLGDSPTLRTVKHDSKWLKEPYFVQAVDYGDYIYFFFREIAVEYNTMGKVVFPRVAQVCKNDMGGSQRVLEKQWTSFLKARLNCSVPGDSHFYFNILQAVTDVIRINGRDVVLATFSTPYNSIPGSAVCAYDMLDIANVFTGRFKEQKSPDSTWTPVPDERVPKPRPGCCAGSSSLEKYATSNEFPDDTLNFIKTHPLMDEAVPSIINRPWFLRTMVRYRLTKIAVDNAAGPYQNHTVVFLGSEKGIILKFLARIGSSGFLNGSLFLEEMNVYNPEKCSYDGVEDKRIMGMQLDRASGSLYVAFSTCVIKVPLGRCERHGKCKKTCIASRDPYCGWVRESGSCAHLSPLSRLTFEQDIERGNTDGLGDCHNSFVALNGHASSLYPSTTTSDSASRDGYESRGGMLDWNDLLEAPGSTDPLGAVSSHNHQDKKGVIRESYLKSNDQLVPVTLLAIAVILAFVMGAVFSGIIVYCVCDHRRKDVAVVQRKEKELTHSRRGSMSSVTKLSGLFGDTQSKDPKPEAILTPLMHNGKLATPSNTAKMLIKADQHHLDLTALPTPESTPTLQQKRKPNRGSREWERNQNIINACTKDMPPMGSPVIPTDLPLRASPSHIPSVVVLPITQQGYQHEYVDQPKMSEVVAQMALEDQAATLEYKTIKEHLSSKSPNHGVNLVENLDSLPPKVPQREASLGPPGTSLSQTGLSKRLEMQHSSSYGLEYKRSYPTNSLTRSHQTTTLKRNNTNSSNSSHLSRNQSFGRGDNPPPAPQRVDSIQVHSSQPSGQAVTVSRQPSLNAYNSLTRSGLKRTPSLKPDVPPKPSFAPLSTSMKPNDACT
B2: Semaphorin-6A (Mus musculus), O35464-1 (parent)
chain: B1 partner

Variants of: B1
Conditions: with Sema6a

Variant	effect of a mutation on the interaction
F221R	disrupting interaction
A396E	disrupting interaction

Variants of: B2
Conditions: with plxa2_mouse Plxna2, P70207

Variant	effect of a mutation on the interaction
L191R	decreasing interaction
